The values below come from PMC8604728.

Assay [1] deals with wild-type cholecystokinin A receptor (CCKAR) (UniProt P32238).
The target is the same in assay [2]. The source holds these as a separate data set.
The target in assay [3] is CCKAR I296G (UniProt P32238).

As for “Gi heterotrimer of the BRET G-protein dissociation assay (from UniProt P63096 1-354; P62873 1-340; P59768 1-71) (complex)”, the pEC50 of CCK-8 in the BRET G-protein dissociation assay (Gβγ-Venus to GRK3ct-luciferase), cells with CCKAR and Gi (Supplementary Table 3, Receptor + Gi) in assay [1] stood at 7.32.

“Gi heterotrimer of the NanoBiT G-protein recruitment assay (Gαi1, SmBiT-fused human Gβ1, human Gγ2) (from UniProt P63096 1-354; P62873 1-340; P59768 1-71) (complex)”: in assay [2], the pEC50 of CCK-8, Gi-coupling activity by NanoBiT G-protein recruitment assay (CCKAR-LgBiT and SmBiT-Gβ1 in sf9 cells; Supplementary Table 4, WT) amounted to 6.81. Moreover, in assay [3], the pEC50 of CCK-8, Gi-coupling activity by NanoBiT G-protein recruitment assay (CCKAR-LgBiT and SmBiT-Gβ1 in sf9 cells; Supplementary Table 4, I296G) was 6.66.

For “Gq heterotrimer of the BRET G-protein dissociation assay (from UniProt P50148 1-359; P62873 1-340; P59768 1-71) (complex)”, the pEC50 of CCK-8 in the BRET G-protein dissociation assay (Gβγ-Venus to GRK3ct-luciferase), cells with CCKAR and Gq (Supplementary Table 3, Receptor + Gq) in assay [1] is 8.42. Also, the pEC50 of CCK-8, Gq-coupling activity by BRET assay (Supplementary Table 4, WT) in assay [2] was found to be 9.14. Besides, in assay [3], the pEC50 of CCK-8, Gq-coupling activity by BRET assay (Supplementary Table 4, I296G) is 8.38.

With “Gs heterotrimer of the BRET G-protein dissociation assay (from UniProt P63092 1-394; P62873 1-340; P59768 1-71) (complex)”, the pEC50 of CCK-8 in the BRET G-protein dissociation assay (Gβγ-Venus to GRK3ct-luciferase), cells with CCKAR and Gs (Supplementary Table 3, Receptor + Gs) in assay [1] turned out to be 7.92.

In assay [2], “Gs heterotrimer of the NanoBiT G-protein dissociation assay (Gαs-LgBiT, Gβ, SmBiT-Gγ) (from UniProt P63092 1-394; P62873 1-340; P59768 1-71) (complex)” yielded a pEC50 of CCK-8, Gs-coupling activity by NanoBiT G-protein dissociation assay (Gαs-LgBiT and SmBiT-Gγ in HEK 293T/17 cells; Supplementary Table 4, WT) of 10.5. Also, the pEC50 of CCK-8, Gs-coupling activity by NanoBiT G-protein dissociation assay (Gαs-LgBiT and SmBiT-Gγ in HEK 293T/17 cells; Supplementary Table 4, I296G) in assay [3] was 10.5.
